Drawing on patent publication US20100064383A1, this text covers induction of the VvLDOX promoter, dual-luciferase transient assay in grape cells (fold over control without MYB factor) for one substance.

The target in the assay is bHLH protein EGL3 from Arabidopsis (Arabidopsis) (UniProt Q9CAD0). In words: cell-based or functional assay.
UniProt Q9CAD0, sequence (Q9CAD0 whole entry): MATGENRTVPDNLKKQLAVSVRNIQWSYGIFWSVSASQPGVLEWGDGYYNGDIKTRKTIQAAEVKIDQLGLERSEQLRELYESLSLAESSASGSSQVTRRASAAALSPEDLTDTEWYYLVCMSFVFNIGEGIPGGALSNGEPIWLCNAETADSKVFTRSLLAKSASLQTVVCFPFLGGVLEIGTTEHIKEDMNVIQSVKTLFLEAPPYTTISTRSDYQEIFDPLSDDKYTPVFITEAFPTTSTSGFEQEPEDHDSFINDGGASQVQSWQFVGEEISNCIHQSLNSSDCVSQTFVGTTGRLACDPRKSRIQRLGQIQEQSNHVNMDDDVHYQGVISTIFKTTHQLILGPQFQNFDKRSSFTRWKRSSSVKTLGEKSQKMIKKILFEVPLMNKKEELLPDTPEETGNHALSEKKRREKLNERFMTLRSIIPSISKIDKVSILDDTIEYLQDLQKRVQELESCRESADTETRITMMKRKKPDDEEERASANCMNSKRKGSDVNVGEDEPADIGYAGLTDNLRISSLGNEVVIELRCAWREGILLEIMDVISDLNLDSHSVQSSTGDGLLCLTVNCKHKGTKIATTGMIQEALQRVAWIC

Substance VvMYBPA1 returned an induction of the VvLDOX promoter, dual-luciferase transient assay in grape cells (fold over control without MYB factor) of 125 fold.
